Data from the array DNA melting data of Ke et al..

Assay: melting temperature; melt of duplexes
Conditions: sodium 0.0675 M; strand 1 µM

Compared with “CGACGTGCGAAATGTGCTG+CAGCACATATAGCACGTCG ((((((((.(.((((((((+)))))))).).))))))))”, “CGACGTGCTCGATGTGCTG+CAGCACATTTGGCACGTCG ((((((((...((((((((+))))))))...))))))))” is lower in Tm: 54.3 °C for the first, 50.3 °C for the second.

Compared with “CGACGTGCTCTATGTGCTG+CAGCACATTTTGCACGTCG ((((((((...((((((((+))))))))...))))))))”, “CGACGTGCAAAATGTGCTG+CAGCACATAGGGCACGTCG ((((((((...((((((((+))))))))...))))))))” is lower in Tm: 49 °C for the first, 48.7 °C for the second.

Going from “CGACGTGCGGAATGTGCTG+CAGCACATGTTGCACGTCG ((((((((...((((((((+))))))))...))))))))” to “CGACGTGCAGGATGTGCTG+CAGCACATGAAGCACGTCG ((((((((...((((((((+))))))))...))))))))”, the Tm falls from 52.8 °C to 50.3 °C.

Compared with “CGACGTGCAGGATGTGCTG+CAGCACATGGCGCACGTCG ((((((((...((((((((+))))))))...))))))))”, “CGACGTGCGCCATGTGCTG+CAGCACATTCCGCACGTCG (((((((((..((((((((+))))))))..)))))))))” is higher in Tm: 49.9 °C for the first, 50.9 °C for the second.

Going from “CGACGTGCTGTATGTGCTG+CAGCACATGCCGCACGTCG ((((((((.(.((((((((+)))))))).).))))))))” to “CGACGTGCACAATGTGCTG+CAGCACATGCGGCACGTCG ((((((((...((((((((+))))))))...))))))))”, the Tm falls from 52.8 °C to 46.6 °C.

First: CGACGTGCTTCATGTGCTG+CAGCACATTCAGCACGTCG (((((((((..((((((((+))))))))..)))))))))
Second: CGACGTGCACGATGTGCTG+CAGCACATGGAGCACGTCG ((((((((.(.((((((((+)))))))).).))))))))
The Tm of the first is higher: 50.7 °C for the first, 50.5 °C for the second.

Compared with “CGACGTGCAAGATGTGCTG+CAGCACATTGCGCACGTCG ((((((((...((((((((+))))))))...))))))))”, “CGACGTGCCCGATGTGCTG+CAGCACATTGAGCACGTCG ((((((((.(.((((((((+)))))))).).))))))))” is higher in Tm: 52.9 °C for the first, 53.6 °C for the second.

Compared with “CGACGTGCTCAATGTGCTG+CAGCACATCTAGCACGTCG (((((((((..((((((((+))))))))..)))))))))”, “CGACGTGCTTTATGTGCTG+CAGCACATTCAGCACGTCG (((((((((..((((((((+))))))))..)))))))))” is lower in Tm: 51 °C for the first, 50.5 °C for the second.

Going from “CGACGTGCACTATGTGCTG+CAGCACATTCCGCACGTCG ((((((((...((((((((+))))))))...))))))))” to “CGACGTGCCAAATGTGCTG+CAGCACATGCAGCACGTCG ((((((((...((((((((+))))))))...))))))))”, the Tm rises from 42.2 °C to 52.7 °C.

Going from “CGACGTGCCACATGTGCTG+CAGCACATATTGCACGTCG ((((((((.(.((((((((+)))))))).).))))))))” to “CGACGTGCGTGATGTGCTG+CAGCACATTTTGCACGTCG ((((((((...((((((((+))))))))...))))))))”, the Tm rises from 47.4 °C to 50.7 °C.

First: CGACGTGCGGCATGTGCTG+CAGCACATAGGGCACGTCG ((((((((...((((((((+))))))))...))))))))
Second: CGACGTGCTCCATGTGCTG+CAGCACATGTGGCACGTCG ((((((((..(((((((((+)))))))))..))))))))
The Tm of the first is lower: 49.5 °C for the first, 53.8 °C for the second.

First: CGACGTGCTGCATGTGCTG+CAGCACATCATGCACGTCG ((((((((...((((((((+))))))))...))))))))
Second: CGACGTGCGGAATGTGCTG+CAGCACATGGTGCACGTCG ((((((((...((((((((+))))))))...))))))))
The Tm of the first is lower: 52.1 °C for the first, 52.2 °C for the second.

First: CGACGTGCAAAATGTGCTG+CAGCACATTTTGCACGTCG (((((((((((((((((((+)))))))))))))))))))
Second: CGACGTGCTGTATGTGCTG+CAGCACATATCGCACGTCG ((((((((..(((((((((+)))))))))..))))))))
The Tm of the first is higher: 62.4 °C for the first, 50.9 °C for the second.

Compared with “CGACGTGCGCCATGTGCTG+CAGCACATAGCGCACGTCG ((((((((((.((((((((+)))))))).))))))))))”, “CGACGTGCATTATGTGCTG+CAGCACATAATGCACGTCG (((((((((((((((((((+)))))))))))))))))))” is higher in Tm: 58.9 °C for the first, 60.7 °C for the second.

Compared with “CGACGTGCGGTATGTGCTG+CAGCACATCAAGCACGTCG ((((((((...((((((((+))))))))...))))))))”, “CGACGTGCGTGATGTGCTG+CAGCACATAGAGCACGTCG ((((((((...((((((((+))))))))...))))))))” is lower in Tm: 54 °C for the first, 53.1 °C for the second.

First: CGACGTGCCATATGTGCTG+CAGCACATTTAGCACGTCG ((((((((.(.((((((((+)))))))).).))))))))
Second: CGACGTGCGGCATGTGCTG+CAGCACATCTCGCACGTCG (((((((((..((((((((+))))))))..)))))))))
The Tm of the first is lower: 49.7 °C for the first, 53.4 °C for the second.

First: CGACGTGCGCTATGTGCTG+CAGCACATCCAGCACGTCG ((((((((...((((((((+))))))))...))))))))
Second: CGACGTGCTCGATGTGCTG+CAGCACATATGGCACGTCG ((((((((...((((((((+))))))))...))))))))
The Tm of the first is lower: 49.8 °C for the first, 50.5 °C for the second.

Compared with “CGACGTGCTCAATGTGCTG+CAGCACATCATGCACGTCG ((((((((...((((((((+))))))))...))))))))”, “CGACGTGCGTTATGTGCTG+CAGCACATAACGCACGTCG (((((((((((((((((((+)))))))))))))))))))” is higher in Tm: 49.7 °C for the first, 63.6 °C for the second.

Going from “CGACGTGCTAGATGTGCTG+CAGCACATTCTGCACGTCG ((((((((...((((((((+))))))))...))))))))” to “CGACGTGCCACATGTGCTG+CAGCACATCTGGCACGTCG ((((((((((.((((((((+)))))))).))))))))))”, the Tm rises from 52.2 °C to 55.2 °C.

Compared with “CGACGTGCTTCATGTGCTG+CAGCACATCTGGCACGTCG ((((((((...((((((((+))))))))...))))))))”, “CGACGTGCGAAATGTGCTG+CAGCACATACCGCACGTCG (((((((((..((((((((+))))))))..)))))))))” is higher in Tm: 48.9 °C for the first, 53.9 °C for the second.

First: CGACGTGCTTTATGTGCTG+CAGCACATGCTGCACGTCG ((((((((...((((((((+))))))))...))))))))
Second: CGACGTGCCAAATGTGCTG+CAGCACATGGTGCACGTCG ((((((((...((((((((+))))))))...))))))))
The Tm of the first is lower: 46.2 °C for the first, 48.9 °C for the second.

Going from “CGACGTGCACGATGTGCTG+CAGCACATGCCGCACGTCG ((((((((...((((((((+))))))))...))))))))” to “CGACGTGCCCAATGTGCTG+CAGCACATGGGGCACGTCG ((((((((((.((((((((+)))))))).))))))))))”, the Tm rises from 44.4 °C to 61.3 °C.

First: CGACGTGCCATATGTGCTG+CAGCACATACTGCACGTCG ((((((((..(((((((((+)))))))))..))))))))
Second: CGACGTGCTCGATGTGCTG+CAGCACATACAGCACGTCG (((((((((..((((((((+))))))))..)))))))))
The Tm of the first is lower: 49.3 °C for the first, 51.8 °C for the second.

Going from “CGACGTGCTGGATGTGCTG+CAGCACATCAGGCACGTCG ((((((((..(((((((((+)))))))))..))))))))” to “CGACGTGCTCTATGTGCTG+CAGCACATCTGGCACGTCG ((((((((...((((((((+))))))))...))))))))”, the Tm falls from 56.7 °C to 49.5 °C.

Going from “CGACGTGCTCCATGTGCTG+CAGCACATTGAGCACGTCG ((((((((((.((((((((+)))))))).))))))))))” to “CGACGTGCGAAATGTGCTG+CAGCACATGGAGCACGTCG ((((((((...((((((((+))))))))...))))))))”, the Tm rises from 56.5 °C to 60.7 °C.

Going from “CGACGTGCTCCATGTGCTG+CAGCACATAACGCACGTCG ((((((((...((((((((+))))))))...))))))))” to “CGACGTGCTGTATGTGCTG+CAGCACATAGTGCACGTCG ((((((((..(((((((((+)))))))))..))))))))”, the Tm rises from 47 °C to 48 °C.
